Assay in all cases: ITC
In general terms: In ITC the heat of successive injections is recorded.

The target of experiment [1] is human Bmf BH3 motif peptide (26-mer) (human).
For experiment [2], the target named is human Bad BH3 motif peptide (26-mer) (human).
The target of experiment [3] is human Hrk BH3 motif peptide (26-mer) (human).
In experiment [4] the target is human Puma BH3 motif peptide (26-mer) (human).

Consider “TANV16L K52A lacking the C-terminal 23 residues (domain or fragment)”, for which the figures for the fold reduction in binding against wild type TANV16L in experiment [1] and in experiment [2] were 20 fold and 27 fold, respectively.
Consider “TANV16L R90A lacking the C-terminal 23 residues (domain or fragment)”, for which the fold reduction in binding against wild type TANV16L in experiment [3] and in experiment [4] was 2 fold throughout.

(Values after paper doi:10.1101/2020.01.21.914671.)
